Source: PMC2915561 (Biochemistry, 2010)
Numbering of substitutions follows the chain as printed. In names and notes the source's numbering stands.

Experiments:
SEC [1] = target: the molecule itself; test: SEC
SEC [2] = target: the molecule itself; test: SEC; remark: listed apart in the source
SAXS = target: the molecule itself; test: SAXS

B1: LovK (1–368), full-length Caulobacter crescentus LOV-histidine kinase (enzyme, UniProt Q9ABE3 1-368, looked up)
chain: MEDYSESRRAGERLAAGHGVDDPFAAAISATRMAMIVADATQPDIPIIFANDAFLRLTGYARDEVIGRNCRFLQGPDTDPKAIQAVRDALAAGEDVAVDLLNYRKDGSPFWNALNMSPVRNDAGQLVYFFGSQVDVTDKKVVELRARDHSDGLQQMVEERTRELTEALKQKTALLHEVDHRVKNNLQLISSLLLLQNRRVPDPAVKASLRGMLGRVNAIATVHRRLFQSEDVERFDVSAFIRDMVADLMGSAMRDDIRVELDLERVEIPAAKAAPLALVVNELLTNALRHGFPEGRGGRIFVGLSRLNGDFRIEITDDGVGQDRETRASGFGLTIVQLLCQQLKAKWETTDAEPGTRVVVLLPINGTQ
For B1, the “stoichiometry N” value (SEC [1]) was 2.

B2: LovK (1–163) (domain or fragment, Caulobacter crescentus, UniProt Q9ABE3 1-163, looked up)
chain: MEDYSESRRAGERLAAGHGVDDPFAAAISATRMAMIVADATQPDIPIIFANDAFLRLTGYARDEVIGRNCRFLQGPDTDPKAIQAVRDALAAGEDVAVDLLNYRKDGSPFWNALNMSPVRNDAGQLVYFFGSQVDVTDKKVVELRARDHSDGLQQMVEERTRE
With B2 the “stoichiometry N” value (SEC [2]) was 2.

B3: LovK (1–138) (domain or fragment, Caulobacter crescentus, UniProt Q9ABE3 1-138, looked up)
chain: MEDYSESRRAGERLAAGHGVDDPFAAAISATRMAMIVADATQPDIPIIFANDAFLRLTGYARDEVIGRNCRFLQGPDTDPKAIQAVRDALAAGEDVAVDLLNYRKDGSPFWNALNMSPVRNDAGQLVYFFGSQVDVTD
B3 was tested, and the “stoichiometry N” value (SEC [2]) was 2.

B4: LovK (25–163) (domain or fragment, Caulobacter crescentus, UniProt Q9ABE3 25-163, looked up)
chain: AAAISATRMAMIVADATQPDIPIIFANDAFLRLTGYARDEVIGRNCRFLQGPDTDPKAIQAVRDALAAGEDVAVDLLNYRKDGSPFWNALNMSPVRNDAGQLVYFFGSQVDVTDKKVVELRARDHSDGLQQMVEERTRE
For B4, the “stoichiometry N” value (SEC [2]) was 2.

B5: LovK (25–138), isolated LOV core (domain or fragment, Caulobacter crescentus, UniProt Q9ABE3 25-138, looked up)
chain: AAAISATRMAMIVADATQPDIPIIFANDAFLRLTGYARDEVIGRNCRFLQGPDTDPKAIQAVRDALAAGEDVAVDLLNYRKDGSPFWNALNMSPVRNDAGQLVYFFGSQVDVTD
In the case of B5, the “stoichiometry N” value (SEC [2]) is reported as 2.

B6: LovK C70A (1–368), full-length "blind" mutant (enzyme, Caulobacter crescentus, UniProt Q9ABE3 1-368, looked up)
chain: B1 chain with C70A
B6 was tested, and the “stoichiometry N” value (SAXS) was 2.
